US20240285725A1 (APELLIS PHARMACEUTICALS, published 2024)

What was measured:
Assay in all cases: cell-based or functional assay
complement component C3 [1] = biological target: T1, complement component C3 (human, UniProt P01024 23-1663)
complement component C3 [2] = biological target: T1, complement component C3; remark: listed apart in the source
complement component C3 [3] = biological target: T1, complement component C3; remark: listed apart in the source

B1: (CA28-AEEAc)8-PEG40k (peptide)
peptide: ICVWQDWGAHRCTK
modifications: N-terminal acetyl; 1-methyl-tryptophan at position 4; disulfide Cys2-Cys12; AEEAc between Thr13 and Lys; C-terminal amide; Lys side chain coupled to an arm of an eight-arm 40 kD PEG (NOF HGEO-400GS)
Question: Which “IC50 on a molar basis (corrected for 7.5 CA28 moieties per molecule), classical complement inhibition assay” value (complement component C3 [1]) does the source give for B1 here?
Answer: ~0.26 µM

Question: And the “IC50, classical complement inhibition assay (C3b deposition ELISA, human plasma), as a function of CA28 moiety concentration” value (complement component C3 [2])?
Answer: 1.93 µM

B2: CA28-AEEAc-Lys(mPEG40K-carbonyl) (peptide)
peptide: ICVWQDWGAHRCTK
modifications: not fully specified; N-terminal acetyl; 1-methyl-tryptophan at position 4; disulfide Cys2-Cys12; AEEAc between Thr13 and Lys; C-terminal amide; linear 40 kD mPEG (NOF ME-400TS) on the Lys side chain
Question: For B2, which “IC50 (read off the curve), classical-pathway complement activation (C3b deposition ELISA, human plasma)” value (shortened to “IC50 (read off the curve)”) (complement component C3 [3]) is on record?
Answer: ~0.7 µM

B3: CA28-AEEAc-Lys(mPEG40K-hexanoyl) (peptide)
peptide: ICVWQDWGAHRCTK
modifications: N-terminal acetyl; 1-methyl-tryptophan at position 4; disulfide Cys2-Cys12; AEEAc between Thr13 and Lys; C-terminal amide; linear 40 kD mPEG (NOF ME-400HS) on the Lys side chain
Question: How did the “IC50 (read off the curve)” value (complement component C3 [3]) turn out when B3 was run?
Answer: ~0.7 µM

B4: CA28-AEEAc-Lys(mPEG40K-succinyl) (peptide)
peptide: ICVWQDWGAHRCTK
modifications: N-terminal acetyl; 1-methyl-tryptophan at position 4; disulfide Cys2-Cys12; AEEAc between Thr13 and Lys; C-terminal amide; linear 40 kD mPEG (NOF ME-400CS) on the Lys side chain
Question: How did the “IC50 (read off the curve)” value (complement component C3 [3]) turn out when B4 was run?
Answer: ~0.7 µM

B5: CA28-AEEAc-Lys-(PEG40k) (peptide)
peptide: ICVWQDWGAHRCTK
modifications: not fully specified; N-terminal acetyl; 1-methyl-tryptophan at position 4; disulfide Cys2-Cys12; AEEAc between Thr13 and Lys; C-terminal amide; linear monofunctional 40 kD PEG (NOF ME-400GS) on the Lys side chain
Question: Which “IC50 (read off the curve)” value (complement component C3 [3]) does the source give for B5 here?
Answer: ~0.7 µM
